{"source": "paper PMC12700824", "about": "(Nature Structural & Molecular Biology, 2025)", "binders": {"B1": {"name": "human FAM118B residues 24-334, C-terminally His-tagged, wild type (domain or fragment, UniProt Q9BPY3 24-334, looked up)", "chain": "PTKKPRKLLPSLKTKKPRELVLVIGTGISAAVAPQVPALKSWKGLIQALLDAAIDFDLLEDEESKKFQKCLHEDKNLVHVAHDLIQKLSPRTSNVRSTFFKDCLYEVFDDLESKMEDSGKQLLQSVLHLMENGALVLTTNFDNLLELYAADQGKQLESLDLTDEKKVLEWAQEKRKLSVLHIHGVYTNPSGIVLHPAGYQNVLRNTEVMREIQKLYENKSFLFLGCGWTVDDTTFQALFLEAVKHKSDLEHFMLVRRGDVDEFKKLRENMLDKGIKVISYGDDYADLPEYFKRLTCEISTRGTSAGMVREG", "notes": "not shown: His6, C-terminal, kept"}, "B2": {"name": "FAM118B24–334-L32R (domain or fragment, human, UniProt Q9BPY3 24-334, looked up)", "chain": "PTKKPRKLRPSLKTKKPRELVLVIGTGISAAVAPQVPALKSWKGLIQALLDAAIDFDLLEDEESKKFQKCLHEDKNLVHVAHDLIQKLSPRTSNVRSTFFKDCLYEVFDDLESKMEDSGKQLLQSVLHLMENGALVLTTNFDNLLELYAADQGKQLESLDLTDEKKVLEWAQEKRKLSVLHIHGVYTNPSGIVLHPAGYQNVLRNTEVMREIQKLYENKSFLFLGCGWTVDDTTFQALFLEAVKHKSDLEHFMLVRRGDVDEFKKLRENMLDKGIKVISYGDDYADLPEYFKRLTCEISTRGTSAGMVREG", "notes": "also called tail-surface mutant; not shown: His6, C-terminal, kept"}}, "key": {"[1]": {"biological_target": "the molecule itself", "assay": "dynamic light scattering (DLS); FAM118B24–334 WT at 10 µM in PBS pH 7.4, 20 °C"}, "[2]": {"biological_target": "the molecule itself", "assay": "SEC; analytical SEC, Superdex Increase 10/300 GL, 50 mM Tris pH 8, 200 mM NaCl, 0.5 mM TCEP; injection concentrations up to 20 µM (mutant mixture: 10 µM each); sizes are coarse estimates from globular standards"}, "FAM118B24–334-F122R": {"biological_target": "T1, FAM118B24–334-F122R (human, UniProt Q9BPY3 24-334, F122R)", "T1 construct": "also called head-surface mutant; not shown: His6, C-terminal, kept", "assay": "ITC; 25 °C, PBS; FAM118B24–334-L32R in the syringe at 500 µM titrated into FAM118B24–334-F122R in the cell at 50 µM", "conditions": "both partners purified"}}}
{"binder": "B1", "values": [{"measurement": "stoichiometry N", "setting": "[1]", "value": "< 10", "unit": "subunits"}, {"measurement": "stoichiometry N", "setting": "[2]", "value": "> 8", "unit": "protomers"}]}
{"binder": "B2", "values": [{"measurement": "stoichiometry N", "setting": "FAM118B24–334-F122R", "value": "~1"}]}
